# Results reported in patent US20230406885A1, “CYCLIC PEPTIDES FOR TRAPPING INTERLEUKIN-1 BETA” (MERCK SHARP & DOHME LLC, priority 2022, published 2023).
# *1 amine or outer side, *2 acyl side, *3 side chain or, on linkers, in order; H or OH if unused. [ ]: non-standard residue; d: D form. 3AzaPhe4AcPip = (S)-3-(6-(4-acetylpiperazin-1-yl)pyridin-3-yl)-2-aminopropanoic acid, CC(=O)N1CCN(c2ccc(C[C@H](N[*:1])C(=O)[*:2])cn2)CC1; Pro(trans-4-NH2) = O=C([C@@H]1C[C@@H](N[*:3])CN1[*:1])[*:2]; Trp(βS-Me,4-F) = C[C@@H](c1c[nH]c2cccc(F)c12)[C@H](N)C(=O)O; Bip(4'-COOH) = N[C@@H](Cc1ccc(-c2ccc(C(=O)O)cc2)cc1)C(=O)O; Phe(3-CH2NH2) = O=C([C@H](Cc1cccc(CN[*:3])c1)N[*:1])[*:2]; mBip = (S)-2-amino-3-(3-phenylphenyl)propanoic acid; Phe(3-allyloxy) = C=CCOc1cccc(C[C@H](N)C(=O)O)c1; Phe(4-COOH) = N[C@@H](Cc1ccc(C(=O)O)cc1)C(=O)O; h3Pal(5-CN) = N#Cc1cncc(CC[C@H](N)C(=O)O)c1; Ala(4-THP) = N[C@@H](CC1CCOCC1)C(=O)O; hTyr = N[C@@H](CCc1ccc(O)cc1)C(=O)O; dDab = NCC[C@@H](N)C(=O)O; dNMeA = CN[C@H](C)C(=O)O; Nva = CCC[C@H](N)C(=O)O
# Biological target: Recombinant human IL-1β (BioLegend 579404) (human, UniProt P01584 117-269)
# Assay: cell-based or functional assay
row,Binder,MRC5 IC50 [nM]
1,"cyclo([3AzaPhe4AcPip]W[Phe(4-COOH)]G[Pro(trans-4-NH2)][Trp(βS-Me,4-F)]D[dNMeA]G[Bip(4'-COOH)]KL[dDab][hTyr]) (SMILES CC(=O)N1CCN(c2ccc(C[C@@H]3NC(=O)[C@H](CCc4ccc(O)cc4)NC(=O)[C@@H](CCN)NC(=O)[C@H](CC(C)C)NC(=O)[C@H](CCCCN)NC(=O)[C@H](Cc4ccc(-c5ccc(C(=O)O)cc5)cc4)NC(=O)CNC(=O)[C@@H](C)N(C)C(=O)[C@H](CC(=O)O)NC(=O)[C@H]([C@@H](C)c4c[nH]c5cccc(F)c45)NC(=O)[C@@H]4C[C@@H](N)CN4C(=O)CNC(=O)[C@H](Cc4ccc(C(=O)O)cc4)NC(=O)[C@H](Cc4c[nH]c5ccccc45)NC3=O)cn2)CC1) [SEQ ID NO: 7]",0.135
2,"cyclo([Bip(4'-COOH)]W[Phe(4-COOH)]G[Pro(trans-4-NH2)][Trp(βS-Me,4-F)]D[dNMeA]G[Bip(4'-COOH)]KL[dDab][hTyr]) (SMILES CC(C)C[C@@H]1NC(=O)[C@H](CCCCN)NC(=O)[C@H](Cc2ccc(-c3ccc(C(=O)O)cc3)cc2)NC(=O)CNC(=O)[C@@H](C)N(C)C(=O)[C@H](CC(=O)O)NC(=O)[C@H]([C@@H](C)c2c[nH]c3cccc(F)c23)NC(=O)[C@@H]2C[C@@H](N)CN2C(=O)CNC(=O)[C@H](Cc2ccc(C(=O)O)cc2)NC(=O)[C@H](Cc2c[nH]c3ccccc23)NC(=O)[C@H](Cc2ccc(-c3ccc(C(=O)O)cc3)cc2)NC(=O)[C@H](CCc2ccc(O)cc2)NC(=O)[C@@H](CCN)NC1=O) [SEQ ID NO: 68]",0.296
3,"cyclo([Bip(4'-COOH)]W[Phe(4-COOH)]G[Pro(trans-4-NH2)][Trp(βS-Me,4-F)]D[dNMeA]G[Bip(4'-COOH)]KLG[hTyr]) (SMILES CC(C)C[C@@H]1NC(=O)[C@H](CCCCN)NC(=O)[C@H](Cc2ccc(-c3ccc(C(=O)O)cc3)cc2)NC(=O)CNC(=O)[C@@H](C)N(C)C(=O)[C@H](CC(=O)O)NC(=O)[C@H]([C@@H](C)c2c[nH]c3cccc(F)c23)NC(=O)[C@@H]2C[C@@H](N)CN2C(=O)CNC(=O)[C@H](Cc2ccc(C(=O)O)cc2)NC(=O)[C@H](Cc2c[nH]c3ccccc23)NC(=O)[C@H](Cc2ccc(-c3ccc(C(=O)O)cc3)cc2)NC(=O)[C@H](CCc2ccc(O)cc2)NC(=O)CNC1=O) [SEQ ID NO: 70]",0.0973
4,"cyclo([Bip(4'-COOH)]W[Phe(4-COOH)]G[Pro(trans-4-NH2)][Trp(βS-Me,4-F)]D[dNMeA]G[Bip(4'-COOH)]KL[dA][hTyr]) (SMILES CC(C)C[C@@H]1NC(=O)[C@H](CCCCN)NC(=O)[C@H](Cc2ccc(-c3ccc(C(=O)O)cc3)cc2)NC(=O)CNC(=O)[C@@H](C)N(C)C(=O)[C@H](CC(=O)O)NC(=O)[C@H]([C@@H](C)c2c[nH]c3cccc(F)c23)NC(=O)[C@@H]2C[C@@H](N)CN2C(=O)CNC(=O)[C@H](Cc2ccc(C(=O)O)cc2)NC(=O)[C@H](Cc2c[nH]c3ccccc23)NC(=O)[C@H](Cc2ccc(-c3ccc(C(=O)O)cc3)cc2)NC(=O)[C@H](CCc2ccc(O)cc2)NC(=O)[C@@H](C)NC1=O) [SEQ ID NO: 67]",0.046
5,"cyclo([Bip(4'-COOH)]W[Phe(4-COOH)]G[Pro(trans-4-NH2)][Trp(βS-Me,4-F)]D[dNMeA]G[Bip(4'-COOH)][Phe(3-CH2NH2)]L[dA][hTyr]) (SMILES CC(C)C[C@@H]1NC(=O)[C@H](Cc2cccc(CN)c2)NC(=O)[C@H](Cc2ccc(-c3ccc(C(=O)O)cc3)cc2)NC(=O)CNC(=O)[C@@H](C)N(C)C(=O)[C@H](CC(=O)O)NC(=O)[C@H]([C@@H](C)c2c[nH]c3cccc(F)c23)NC(=O)[C@@H]2C[C@@H](N)CN2C(=O)CNC(=O)[C@H](Cc2ccc(C(=O)O)cc2)NC(=O)[C@H](Cc2c[nH]c3ccccc23)NC(=O)[C@H](Cc2ccc(-c3ccc(C(=O)O)cc3)cc2)NC(=O)[C@H](CCc2ccc(O)cc2)NC(=O)[C@@H](C)NC1=O) [SEQ ID NO: 73]",0.0509
6,"cyclo([Bip(4'-COOH)]W[Phe(4-COOH)]G[Pro(trans-4-NH2)][Trp(βS-Me,4-F)]D[dNMeA]G[Bip(4'-COOH)][Phe(3-allyloxy)]L[dA][hTyr]) (SMILES C=CCOc1cccc(C[C@@H]2NC(=O)[C@H](Cc3ccc(-c4ccc(C(=O)O)cc4)cc3)NC(=O)CNC(=O)[C@@H](C)N(C)C(=O)[C@H](CC(=O)O)NC(=O)[C@H]([C@@H](C)c3c[nH]c4cccc(F)c34)NC(=O)[C@@H]3C[C@@H](N)CN3C(=O)CNC(=O)[C@H](Cc3ccc(C(=O)O)cc3)NC(=O)[C@H](Cc3c[nH]c4ccccc34)NC(=O)[C@H](Cc3ccc(-c4ccc(C(=O)O)cc4)cc3)NC(=O)[C@H](CCc3ccc(O)cc3)NC(=O)[C@@H](C)NC(=O)[C@H](CC(C)C)NC2=O)c1) [SEQ ID NO: 76]",0.122
7,"cyclo([Bip(4'-COOH)]W[Phe(4-COOH)]G[Pro(trans-4-NH2)][Trp(βS-Me,4-F)]D[dNMeA]G[Bip(4'-COOH)]KS[dA][hTyr]) (SMILES C[C@@H]1C(=O)NCC(=O)N[C@@H](Cc2ccc(-c3ccc(C(=O)O)cc3)cc2)C(=O)N[C@@H](CCCCN)C(=O)N[C@@H](CO)C(=O)N[C@H](C)C(=O)N[C@@H](CCc2ccc(O)cc2)C(=O)N[C@@H](Cc2ccc(-c3ccc(C(=O)O)cc3)cc2)C(=O)N[C@@H](Cc2c[nH]c3ccccc23)C(=O)N[C@@H](Cc2ccc(C(=O)O)cc2)C(=O)NCC(=O)N2C[C@H](N)C[C@H]2C(=O)N[C@@H]([C@@H](C)c2c[nH]c3cccc(F)c23)C(=O)N[C@@H](CC(=O)O)C(=O)N1C) [SEQ ID NO: 72]",0.107
8,"cyclo([Bip(4'-COOH)]W[Phe(4-COOH)]G[Pro(trans-4-NH2)][Trp(βS-Me,4-F)]D[dNMeA]G[Bip(4'-COOH)][mBip]L[dA][hTyr]) [SEQ ID NO: 75]",0.165
9,"cyclo([Bip(4'-COOH)]W[Phe(4-COOH)]G[Pro(trans-4-NH2)][Trp(βS-Me,4-F)]D[dNMeA]G[Bip(4'-COOH)]K[Nva][dA][hTyr]) (SMILES CCC[C@@H]1NC(=O)[C@H](CCCCN)NC(=O)[C@H](Cc2ccc(-c3ccc(C(=O)O)cc3)cc2)NC(=O)CNC(=O)[C@@H](C)N(C)C(=O)[C@H](CC(=O)O)NC(=O)[C@H]([C@@H](C)c2c[nH]c3cccc(F)c23)NC(=O)[C@@H]2C[C@@H](N)CN2C(=O)CNC(=O)[C@H](Cc2ccc(C(=O)O)cc2)NC(=O)[C@H](Cc2c[nH]c3ccccc23)NC(=O)[C@H](Cc2ccc(-c3ccc(C(=O)O)cc3)cc2)NC(=O)[C@H](CCc2ccc(O)cc2)NC(=O)[C@@H](C)NC1=O) [SEQ ID NO: 71]",0.0926
10,"cyclo([Bip(4'-COOH)]W[Phe(4-COOH)]G[Pro(trans-4-NH2)][Trp(βS-Me,4-F)]D[dNMeA]G[Bip(4'-COOH)][Phe(3-CH2NH2)]S[dA][hTyr]) (SMILES C[C@@H]1C(=O)NCC(=O)N[C@@H](Cc2ccc(-c3ccc(C(=O)O)cc3)cc2)C(=O)N[C@@H](Cc2cccc(CN)c2)C(=O)N[C@@H](CO)C(=O)N[C@H](C)C(=O)N[C@@H](CCc2ccc(O)cc2)C(=O)N[C@@H](Cc2ccc(-c3ccc(C(=O)O)cc3)cc2)C(=O)N[C@@H](Cc2c[nH]c3ccccc23)C(=O)N[C@@H](Cc2ccc(C(=O)O)cc2)C(=O)NCC(=O)N2C[C@H](N)C[C@H]2C(=O)N[C@@H]([C@@H](C)c2c[nH]c3cccc(F)c23)C(=O)N[C@@H](CC(=O)O)C(=O)N1C) [SEQ ID NO: 74]",0.296
11,"cyclo([Bip(4'-COOH)]W[Phe(4-COOH)]G[Pro(trans-4-NH2)][Trp(βS-Me,4-F)]D[dNMeA]G[Bip(4'-COOH)]KL[dS][hTyr]) (SMILES CC(C)C[C@@H]1NC(=O)[C@H](CCCCN)NC(=O)[C@H](Cc2ccc(-c3ccc(C(=O)O)cc3)cc2)NC(=O)CNC(=O)[C@@H](C)N(C)C(=O)[C@H](CC(=O)O)NC(=O)[C@H]([C@@H](C)c2c[nH]c3cccc(F)c23)NC(=O)[C@@H]2C[C@@H](N)CN2C(=O)CNC(=O)[C@H](Cc2ccc(C(=O)O)cc2)NC(=O)[C@H](Cc2c[nH]c3ccccc23)NC(=O)[C@H](Cc2ccc(-c3ccc(C(=O)O)cc3)cc2)NC(=O)[C@H](CCc2ccc(O)cc2)NC(=O)[C@@H](CO)NC1=O) [SEQ ID NO: 69]",0.334
12,"cyclo([Bip(4'-COOH)]W[Phe(4-COOH)]G[Pro(trans-4-NH2)][Trp(βS-Me,4-F)]D[dNMeA]G[Bip(4'-COOH)]KL[dA][h3Pal(5-CN)]) (SMILES CC(C)C[C@@H]1NC(=O)[C@H](CCCCN)NC(=O)[C@H](Cc2ccc(-c3ccc(C(=O)O)cc3)cc2)NC(=O)CNC(=O)[C@@H](C)N(C)C(=O)[C@H](CC(=O)O)NC(=O)[C@H]([C@@H](C)c2c[nH]c3cccc(F)c23)NC(=O)[C@@H]2C[C@@H](N)CN2C(=O)CNC(=O)[C@H](Cc2ccc(C(=O)O)cc2)NC(=O)[C@H](Cc2c[nH]c3ccccc23)NC(=O)[C@H](Cc2ccc(-c3ccc(C(=O)O)cc3)cc2)NC(=O)[C@H](CCc2cncc(C#N)c2)NC(=O)[C@@H](C)NC1=O) [SEQ ID NO: 66]",0.0299
13,"cyclo([Bip(4'-COOH)]W[Phe(4-COOH)]G[Pro(trans-4-NH2)][Trp(βS-Me,4-F)]D[dNMeA]G[Bip(4'-COOH)]K[Ala(4-THP)][dA][hTyr]) (SMILES C[C@@H]1C(=O)NCC(=O)N[C@@H](Cc2ccc(-c3ccc(C(=O)O)cc3)cc2)C(=O)N[C@@H](CCCCN)C(=O)N[C@@H](CC2CCOCC2)C(=O)N[C@H](C)C(=O)N[C@@H](CCc2ccc(O)cc2)C(=O)N[C@@H](Cc2ccc(-c3ccc(C(=O)O)cc3)cc2)C(=O)N[C@@H](Cc2c[nH]c3ccccc23)C(=O)N[C@@H](Cc2ccc(C(=O)O)cc2)C(=O)NCC(=O)N2C[C@H](N)C[C@H]2C(=O)N[C@@H]([C@@H](C)c2c[nH]c3cccc(F)c23)C(=O)N[C@@H](CC(=O)O)C(=O)N1C) [SEQ ID NO: 65]",0.0158
